First the molecules themselves.
B1: BCL2L13 (parent)
chain: YIIQQGGWGTVFSLESEEEEYPGI
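Further: lentivirally expressed fusions sorted by FACS into six bins by GFP to DsRed ratio, PSI derived from sequencing read proportions per bin multiplied by bin number.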

The variants in the series derive from B1. The series is described as follows: protein stability index of a GFP-peptide fusion (GPS, HEK-293T) (PSI 1-6); higher = more stable. To be noted: c terminus: a fixed tail appended.
Take YIIAQGGWGTVFSLESEEEEYPGI [Q4A]: the protein stability index is 2.19.

On to YIIEQGGWGTVFSLESEEEEYPGI [Q4E], for which the protein stability index was found to be 1.4.

Turning to YIINQGGWGTVFSLESEEEEYPGI [Q4N], the protein stability index turned out to be 1.58.

Take YIIHQGGWGTVFSLESEEEEYPGI [Q4H]: the protein stability index stood at 1.2.

As for YIIVQGGWGTVFSLESEEEEYPGI [Q4V], the protein stability index worked out at 3.01.

Regarding YIIRQGGWGTVFSLESEEEEYPGI [Q4R], the protein stability index came out at 2.35.

On to YIIWQGGWGTVFSLESEEEEYPGI [Q4W], for which the protein stability index came to 2.88.

Consider FIIQQGGWGTVFSLESEEEEYPGI [Y1F], for which the protein stability index is 1.18.

In the case of DIIQQGGWGTVFSLESEEEEYPGI [Y1D], the protein stability index was 3.47.

Take RIIQQGGWGTVFSLESEEEEYPGI [Y1R]: the protein stability index stood at 3.87.

Take NIIQQGGWGTVFSLESEEEEYPGI [Y1N]: the protein stability index was 4.12.

Turning to GIIQQGGWGTVFSLESEEEEYPGI [Y1G], the protein stability index is 4.05.

LIIQQGGWGTVFSLESEEEEYPGI [Y1L]: the protein stability index worked out at 1.87.

Turning to IIIQQGGWGTVFSLESEEEEYPGI [Y1I], the protein stability index was found to be 1.6.

In the case of AIIQQGGWGTVFSLESEEEEYPGI [Y1A], the protein stability index worked out at 3.38.

TIIQQGGWGTVFSLESEEEEYPGI [Y1T]: the protein stability index is 3.75.

As for EIIQQGGWGTVFSLESEEEEYPGI [Y1E], the protein stability index is 2.86.

With VIIQQGGWGTVFSLESEEEEYPGI [Y1V], the protein stability index was determined as 2.57.

With CIIQQGGWGTVFSLESEEEEYPGI [Y1C], the protein stability index worked out at 2.47.

KIIQQGGWGTVFSLESEEEEYPGI [Y1K]: the protein stability index was found to be 3.39.

As for QIIQQGGWGTVFSLESEEEEYPGI [Y1Q], the protein stability index turned out to be 3.18.

For the variant HIIQQGGWGTVFSLESEEEEYPGI [Y1H], the protein stability index stood at 3.19.

Take PIIQQGGWGTVFSLESEEEEYPGI [Y1P]: the protein stability index was 4.31.

For the variant YIIQQGGWKTVFSLESEEEEYPGI [G9K], the protein stability index came out at 1.7.

Regarding YIIQQGGWETVFSLESEEEEYPGI [G9E], the protein stability index is 2.65.

With YIIQQGGWSTVFSLESEEEEYPGI [G9S], the protein stability index was determined as 1.68.

Consider YIIQQGGWDTVFSLESEEEEYPGI [G9D], for which the protein stability index was found to be 1.13.

Consider YIIQQGGWRTVFSLESEEEEYPGI [G9R], for which the protein stability index was found to be 1.06.

Turning to YIIQQGGWPTVFSLESEEEEYPGI [G9P], the protein stability index was 1.09.

For the variant YIIQQGGWHTVFSLESEEEEYPGI [G9H], the protein stability index turned out to be 1.42.

Regarding YIIQQGGWATVFSLESEEEEYPGI [G9A], the protein stability index was 1.62.

Take YIIQQGGWTTVFSLESEEEEYPGI [G9T]: the protein stability index was found to be 3.

As for YIIQQGGWLTVFSLESEEEEYPGI [G9L], the protein stability index worked out at 3.44.

In the case of YIIQQGGWITVFSLESEEEEYPGI [G9I], the protein stability index was 3.4.

Regarding YIIQQGGWCTVFSLESEEEEYPGI [G9C], the protein stability index was determined as 3.36.

Consider YIIQQGGWQTVFSLESEEEEYPGI [G9Q], for which the protein stability index came out at 1.81.

Take YIIQQGGWVTVFSLESEEEEYPGI [G9V]: the protein stability index stood at 3.32.

Regarding YFIQQGGWGTVFSLESEEEEYPGI [I2F], the protein stability index came out at 2.68.

YAIQQGGWGTVFSLESEEEEYPGI [I2A]: the protein stability index is 1.96.

For the variant YLIQQGGWGTVFSLESEEEEYPGI [I2L], the protein stability index came out at 2.76.

For the variant YMIQQGGWGTVFSLESEEEEYPGI [I2M], the protein stability index amounted to 2.86.

In the case of YEIQQGGWGTVFSLESEEEEYPGI [I2E], the protein stability index turned out to be 5.34.

As for YYIQQGGWGTVFSLESEEEEYPGI [I2Y], the protein stability index amounted to 2.46.

With YRIQQGGWGTVFSLESEEEEYPGI [I2R], the protein stability index worked out at 2.42.

On to YGIQQGGWGTVFSLESEEEEYPGI [I2G], for which the protein stability index stood at 2.95.

For the variant YKIQQGGWGTVFSLESEEEEYPGI [I2K], the protein stability index was 3.31.

Consider YWIQQGGWGTVFSLESEEEEYPGI [I2W], for which the protein stability index stood at 2.38.

For YHIQQGGWGTVFSLESEEEEYPGI [I2H], the protein stability index is 2.9.

Regarding YDIQQGGWGTVFSLESEEEEYPGI [I2D], the protein stability index is 3.9.

In the case of YQIQQGGWGTVFSLESEEEEYPGI [I2Q], the protein stability index was found to be 1.98.

With YTIQQGGWGTVFSLESEEEEYPGI [I2T], the protein stability index is 2.75.

As to YIIQQGGWGTNFSLESEEEEYPGI [V11N], the protein stability index came out at 1.98.

On to YIIQQGGWGTRFSLESEEEEYPGI [V11R], for which the protein stability index came out at 1.91.

For YIIQQGGWGTGFSLESEEEEYPGI [V11G], the protein stability index turned out to be 3.31.

For the variant YIIQQGGWGTSFSLESEEEEYPGI [V11S], the protein stability index was determined as 2.61.

For YIIQQGGWGTPFSLESEEEEYPGI [V11P], the protein stability index stood at 1.76.

YIIQQGGWGTKFSLESEEEEYPGI [V11K]: the protein stability index stood at 1.64.

On to YIIQQGGWGTHFSLESEEEEYPGI [V11H], for which the protein stability index was 2.25.

As to YIIQQGGWGTFFSLESEEEEYPGI [V11F], the protein stability index was found to be 2.93.

For the variant YIIQQGGWGTAFSLESEEEEYPGI [V11A], the protein stability index came out at 2.12.

Regarding YIIQQGGWGTDFSLESEEEEYPGI [V11D], the protein stability index stood at 2.67.

Take YIIQQGGWGTLFSLESEEEEYPGI [V11L]: the protein stability index turned out to be 1.36.

Regarding YIIQQGGWGTWFSLESEEEEYPGI [V11W], the protein stability index was determined as 1.42.

Regarding YIIQQGGWGTQFSLESEEEEYPGI [V11Q], the protein stability index worked out at 1.86.

In the case of YIIQQGGWGTTFSLESEEEEYPGI [V11T], the protein stability index amounted to 1.

Turning to YIIQQGGWGTIFSLESEEEEYPGI [V11I], the protein stability index was determined as 1.78.

Regarding YIIQQGGWGTYFSLESEEEEYPGI [V11Y], the protein stability index came to 2.04.

On to YIHQQGGWGTVFSLESEEEEYPGI [I3H], for which the protein stability index came to 2.71.

On to YISQQGGWGTVFSLESEEEEYPGI [I3S], for which the protein stability index was 2.04.

Regarding YIFQQGGWGTVFSLESEEEEYPGI [I3F], the protein stability index came out at 2.27.

As to YIAQQGGWGTVFSLESEEEEYPGI [I3A], the protein stability index came to 1.58.

In the case of YIEQQGGWGTVFSLESEEEEYPGI [I3E], the protein stability index was 2.63.

YIPQQGGWGTVFSLESEEEEYPGI [I3P]: the protein stability index was 2.56.

For YIIQQKGWGTVFSLESEEEEYPGI [G6K], the protein stability index was 2.9.

As to YIIQQDGWGTVFSLESEEEEYPGI [G6D], the protein stability index came out at 1.42.

Consider YIIQQTGWGTVFSLESEEEEYPGI [G6T], for which the protein stability index is 2.31.

YIIQQSGWGTVFSLESEEEEYPGI [G6S]: the protein stability index is 1.73.

In the case of YIIQQVGWGTVFSLESEEEEYPGI [G6V], the protein stability index came out at 1.23.

As for YIIQQHGWGTVFSLESEEEEYPGI [G6H], the protein stability index turned out to be 1.48.

In the case of YIIQQNGWGTVFSLESEEEEYPGI [G6N], the protein stability index amounted to 2.15.

Take YIIQQPGWGTVFSLESEEEEYPGI [G6P]: the protein stability index is 2.12.

Consider YIIQQFGWGTVFSLESEEEEYPGI [G6F], for which the protein stability index came out at 1.97.

In the case of YIIQQEGWGTVFSLESEEEEYPGI [G6E], the protein stability index turned out to be 2.06.

Take YIIQQRGWGTVFSLESEEEEYPGI [G6R]: the protein stability index was determined as 2.02.

As for YIIQQWGWGTVFSLESEEEEYPGI [G6W], the protein stability index is 1.14.

Regarding YIIQQGGWGTVFELESEEEEYPGI [S13E], the protein stability index is 1.33.

Regarding YIIQQGGWGTVFPLESEEEEYPGI [S13P], the protein stability index amounted to 1.38.

YIIQQGGWGTVFHLESEEEEYPGI [S13H]: the protein stability index amounted to 1.43.

With YIIQQGGWGTVFDLESEEEEYPGI [S13D], the protein stability index was 2.72.

As to YIIQQGGWGTVFYLESEEEEYPGI [S13Y], the protein stability index is 1.71.

Take YIIQQGGWGTVFCLESEEEEYPGI [S13C]: the protein stability index came to 1.49.

Take YIIQQGGWGTVFLLESEEEEYPGI [S13L]: the protein stability index turned out to be 1.24.

Turning to YIIQQGGWGTVFNLESEEEEYPGI [S13N], the protein stability index was 3.23.

Take YIIQQGGWGTVFGLESEEEEYPGI [S13G]: the protein stability index is 1.74.
